The results in this text go back to patent US20170342161A1 (APROGEN KIC, published 2017).

In test [1] the target is T1, carbonic anhydrase 12 (CA-XII) as expressed by human tumor cell lines (human, UniProt O43570 25-354).
T1 construct: also called CA12; CA12 antigen
As to the kind of experiment: flow cytometry, percent positive cells, HCT116 (colon). The procedure:
(§1) 27B6 and 4B4 monoclonal antibodies were analyzed for binding to various cell lines obtained from KCLB (Korean Cell Line Bank) and SNU (Seoul National University) using flow cytometry. Briefly, various cell lines were obtained from KCLB (Korean Cell Line Bank) and SNU (Seoul National University). At 37° C. under a 5% CO₂ atmosphere, L-132, SW-900, DU145, LNCap, MCF-7, Huh7, and Hs-578T were cultured in Dulbecco's MEM (GIBCO, Invitrogen) supplemented with 10% heat-inactivated fetal bovine serum (FBS; GIBCO, Invitrogen) and A549, NCI-H460, NCI-H417, DLD-1, HCT116, HT-29, SW-480, SW-620, LS174T, PC-3, SNU1, SNU638, SNU719, MKN1, MKN28, MKN45, MKN74, NCI-N87, SK-BR3, MDA-MB231, and MDA-MB453 were cultured in RPMI 1640 (GIBCO, Invitrogen) supplemented with 10% heat-inactivated FBS. […]
(§2) The cultured cancer cell lines were incubated with the 27B6 or the 4B4 monoclonal antibody of the present disclosure at 4° C. for 30 min, washed with PBS, and treated with FITC-conjugated goat anti-mouse IgG (DiNona Inc, Korea) at 4° C. for 15 min. […] Also, titers of the 27B6 and the 4B4 antibody were measured in various solid tumor cell lines.
(Flow cytometry measures light scatter and fluorescence of single cells or particles in a stream.)

The target in test [2] is T1, carbonic anhydrase 12 (CA-XII) as …. As to the kind of experiment: flow cytometry (A549 cells, per paragraph 117). The procedure: (§3) Three days post transfection, the supernatant was taken and added to A549 cells which were then incubated at 4° C. for 30 min. Unbound antibodies were removed by centrifugation, together with 3 ml of PBS, at 1500 rpm for 3 min. The bound antibodies were detected by incubation with a 150-fold dilution of the secondary antibody goat anti-Mouse Ig-FITC (Dinona) at 4° C. for 15 min, followed by washing with 3 ml of PBS in the same manner. Thereafter, the antibody titer to A549 cells was measured using flow cytometry. Subsequently, a stable cell line was established. For this, the medium was exchanged with a PowerCHO medium (LONZA, Switzerland) supplemented with 30 nM MTX (Sigma, USA) and 200 μg/ml G418 (Invitrogen, USA), after which clone selection was started. Concentrations of MTX and G418 in the selection medium were increased with the repetition of clone selection rounds. Each round was set to be three weeks. The final round of clone selection was performed in a PowerCHO medium supplemented with 1000 nM MTX and 400 μg/ml G418. Thereafter, the final cell line was established as a single colony through limiting dilution.

Test [3] shares this target. In words: flow cytometry, percent positive cells, NCI-H460 (lung). The procedure:
as §1, §2

Test [4] shares this target. In words: flow cytometry (A549 cells, per paragraph 138). The protocol: as §3, with “to A549 cells, which were” for “to A549 cells which were”, “was measured by flow cytometry.” for “was measured using flow cytometry.”, “1000 nM of MTX and” for “1000 nM MTX and”, “400 μg/ml of G418. Thereafter,” for “400 μg/ml G418. Thereafter,”

T1 sequence (O43570 25-354 limits assumed): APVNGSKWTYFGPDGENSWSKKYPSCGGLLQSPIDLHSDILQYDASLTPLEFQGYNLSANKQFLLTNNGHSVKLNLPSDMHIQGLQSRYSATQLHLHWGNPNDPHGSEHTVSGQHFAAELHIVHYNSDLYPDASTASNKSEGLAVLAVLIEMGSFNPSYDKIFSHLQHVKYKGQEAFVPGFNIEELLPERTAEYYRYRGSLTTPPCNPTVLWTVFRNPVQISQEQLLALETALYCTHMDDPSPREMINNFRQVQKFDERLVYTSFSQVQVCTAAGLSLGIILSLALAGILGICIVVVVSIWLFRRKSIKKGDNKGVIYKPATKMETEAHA

B1: 27B6 monoclonal antibody (antibody, mouse IgG1, V domains shown)
VH: QVQLQQSGPQLVWPGASVKISCNTSGYSFTNYWIHWVKQRPGQGLEWIGMIDPSDSETRLNQKFKDKTTLTVDRSSSTAYMQVSSSTSEDSAVYYCTRGIRGGYYAMDYWGQGTSVTVSS
VL: DIQMTQTTSSLSASLGDRVTISCRASQDISNYLNWYQQKPEGTVKLLIYYTSRLHSGVPSRFSGSGSGTDYSLTISNLEQEDIATYFCQQGDTLPRTFGEGTKLEIR
notes: also called 27B6 Ab; mouse 27B6 antibody
As for B1, the binding result in test [1] is on record as “binds”.

B2: 27B6 chimeric antibody (antibody, V domains shown)
VH: B1 VH
VL: B1 VL
notes: Chimeric antibody: mouse 27B6 variable regions, the rest 'substituted with the Fc of the human antibody'; Produced in CHO DG44 cells; also called chimeric 27B6; 27B6-HuIgFc
As for B2, the binding result in test [2] is on record as “binds”.

B3: 4B4 monoclonal antibody (antibody, V domains shown)
VH: EIQLQQSGPELVKPGASVKISCKASGYSYTDYNIYWVRQSQGKSLDWIGYIDPANGDTTYNQKFKGKATLTVDKSSSTAFMHLNSLTSDGSAVYFCARPIYYGVYWYFDVWGAGTTVTVS
VL: DIVMTQAAPSVPVTPGESVSISCRSSKSLLHSNGNTYLYWFLQRPGQSPQLLIYRMSNLASGVPDRFSGSGSGTAFTLRISRVEAEDVGVYYCMQHLEYPFTFGSGTKLEIK
notes: Mouse hybridoma antibody; also called 4B4 Ab; mouse 4B4 antibody
On to B3, for which, in test [3], the binding result is on record as “binds”.

B4: 4B4 chimeric antibody (antibody, V domains shown)
VH: B3 VH
VL: B3 VL
notes: Chimeric antibody: mouse 4B4 variable regions, the rest 'substituted with the Fc of the human antibody'; Produced in CHO DG44 cells; also called chimeric 4B4; 4B4-HuIgFc
Consider B4, for which the binding result in test [4] is “binds”.
